B1: AcGFP-tagged Claudin-4 (natural protein, UniProt O14493 1-209, looked up)
chain: MASMGLQVMGIALAVLGWLAVMLCCALPMWRVTAFIGSNIVTSQTIWEGLWMNCVVQSTGQMQCKVYDSLLALPQDLQAARALVIISIIVAALGVLLSVVGGKCTNCLEDESAKAKTMIVAGVVFLLAGLMVIVPVSWTAHNIIQDFYNPLVASGQKREMGASLYVGWAASGLLLLGGGLLCCNCPPRTDKPYSAKYSAARSAAASNYV
B2: AcGFP-tagged Claudin-17 (natural protein, UniProt P56750 1-224, looked up)
chain: MAFYPLQIAGLVLGFLGMVGTLATTLLPQWRVSAFVGSNIIVFERLWEGLWMNCIRQARVRLQCKFYSSLLALPPALETARALMCVAVALSLIALLIGICGMKQVQCTGSNERAKAYLLGTSGVLFILTGIFVLIPVSWTANIIIRDFYNPAIHIGQKRELGAALFLGWASAAVLFIGGGLLCGFCCCNRKKQGYRYPVPGYRVPHTDKRRNTTMLSKTSTSYV
B3: AcGFP-tagged Claudin-6 (natural protein, UniProt P56747 1-220, looked up)
chain: MASAGMQILGVVLTLLGWVNGLVSCALPMWKVTAFIGNSIVVAQVVWEGLWMSCVVQSTGQMQCKVYDSLLALPQDLQAARALCVIALLVALFGLLVYLAGAKCTTCVEEKDSKARLVLTSGIVFVISGVLTLIPVCWTAHAIIRDFYNPLVAEAQKRELGASLYLGWAASGLLLLGGGLLCCTCPSGGSQGPSHYMARYSTSAPAISRGPSEYPTKNYV
B4: Claudin-1 tagged with AcGFP or DsRED (natural protein, UniProt O95832 1-211, looked up)
chain: MANAGLQLLGFILAFLGWIGAIVSTALPQWRIYSYAGDNIVTAQAMYEGLWMSCVSQSTGQIQCKVFDSLLNLSSTLQATRALMVVGILLGVIAIFVATVGMKCMKCLEDDEVQKMRMAVIGGAIFLLAGLAILVATAWYGNRIVQEFYDPMTPVNARYEFGQALFTGWAAASLCLLGGALLCCSCPRKTTSYPTPRPYPKPAPSSGKDYV
B5: AcGFP-tagged Claudin-12 (natural protein, UniProt P56749 1-244, looked up)
chain: MGCRDVHAATVLSFLCGIASVAGLFAGTLLPNWRKLRLITFNRNEKNLTVYTGLWVKCARYDGSSDCLMYDTTWYSSVDQLDLRVLQFALPLSMLIAMGALLLCLIGMCNTAFRSSVPNIKLAKCLVNSAGCHLVAGLLFFLAGTVSLSPSIWVIFYNIHLNKKFEPVFSFDYAVYVTIASAGGLFMTSLILFIWYCTCKSLPSPFWQPLYSHPPSMHTYSQPYSARSRLSAIEIDIPVVSHTT
B6: CD81 tagged with AcGFP or DsRED, P60033 1-236 (natural protein)
chain: MGVEGCTKCIKYLLFVFNFVFWLAGGVILGVALWLRHDPQTTNLLYLELGDKPAPNTFYVGIYILIAVGAVMMFVGFLGCYGAIQESQCLLGTFFTCLVILFACEVAAGIWGFVNKDQIAKDVKQFYDQALQQAVVDDDANNAKAVVKTFHETLDCCGSSTLTALTTSVLKNNLCPSGSNIISNLFKEDCHQKIDDLFSGKLYLIGIAAIVVAVIMIFEMILSMVLCCGIRNSSVY
B7: AcGFP-tagged Claudin-11 (natural protein, UniProt O75508 1-207, looked up)
chain: MVATCLQVVGFVTSFVGWIGVIVTTSTNDWVVTCGYTIPTCRKLDELGSKGLWADCVMATGLYHCKPLVDILILPGYVQACRALMIAASVLGLPAILLLLTVLPCIRMGQEPGVAKYRRAQLAGVLLILLALCALVATIWFPVCAHRETTIVSFGYSLYAGWIGAVLCLVGGCVILCCAGDAQAFGENRFYYTAGSSSPTHAKSAHV
B8: AcGFP-tagged Claudin-9 (natural protein, UniProt O95484 1-217, looked up)
chain: MASTGLELLGMTLAVLGWLGTLVSCALPLWKVTAFIGNSIVVAQVVWEGLWMSCVVQSTGQMQCKVYDSLLALPQDLQAARALCVIALLLALLGLLVAITGAQCTTCVEDEGAKARIVLTAGVILLLAGILVLIPVCWTAHAIIQDFYNPLVAEALKRELGASLYLGWAAAALLMLGGGLLCCTCPPPQVERPRGPRLGYSIPSRSGASGLDKRDYV

What was measured:
Experiment in all cases: FRET or BRET
[1] = target: CD81 tagged with AcGFP or DsRED (UniProt P60033)
[2] = target: B4
DsRED-tagged Occludin = target: T1, DsRED-tagged Occludin (UniProt Q16625 1-522)
T1 sequence (looked up): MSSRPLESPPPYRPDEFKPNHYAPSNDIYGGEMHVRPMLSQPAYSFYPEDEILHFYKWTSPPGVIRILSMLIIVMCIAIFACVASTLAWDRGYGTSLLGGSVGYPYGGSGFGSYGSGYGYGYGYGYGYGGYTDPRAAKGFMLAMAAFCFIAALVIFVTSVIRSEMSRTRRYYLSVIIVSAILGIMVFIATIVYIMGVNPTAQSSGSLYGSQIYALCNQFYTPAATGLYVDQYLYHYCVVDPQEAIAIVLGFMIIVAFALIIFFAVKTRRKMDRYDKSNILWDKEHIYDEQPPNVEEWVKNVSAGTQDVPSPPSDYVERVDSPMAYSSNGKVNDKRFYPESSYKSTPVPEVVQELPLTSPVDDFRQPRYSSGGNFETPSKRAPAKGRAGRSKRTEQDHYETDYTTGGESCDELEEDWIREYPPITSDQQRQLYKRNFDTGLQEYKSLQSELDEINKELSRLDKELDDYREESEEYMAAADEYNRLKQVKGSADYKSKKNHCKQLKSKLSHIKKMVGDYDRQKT

[3] = target: T2, CD81 tagged with AcGFP or DsRED (UniProt P60033 1-236)
T2 sequence (looked up): B6 chain

[4] = target: T3, CD81 tagged with AcGFP or DsRED, P60033; settings: remark: other sources report otherwise
T3 chain: B6 chain

Row | Molecule | %FRET [2] [%] | %FRET (DsRED-tagged Occludin) [%] | other results
1 | Claudin-1 tagged with AcGFP or DsRED (from UniProt O95832 1-211) (natural protein) | – | – | %FRET [1]: 25%; %FRET (after 10 mM MβCD, 1 h) [1]: 35%
2 | B1 | 18 | – | –
3 | B2 | – | 40 | –
4 | B3 | 31 | 27 | %FRET [3]: 50%
5 | B4 | – | 48 | –
6 | B5 | – | 38 | –
7 | B6 | – | – | %FRET (after 10 mM MβCD, 1 h) [4]: 55%; %FRET (untreated cells) [4]: 63%
8 | B7 | – | 23 | –
9 | B8 | 18 | 18 | %FRET [3]: 63%
